# In patent US6258932, “Peptides that block viral infectivity and methods of use thereof” (Tripep AB, dated 2001):
# Ends that are not written are not given here.
# Key:
# [1] = molecular target: capsid protein of HIV-2 (HIV-2)
# [2] = molecular target: capsid protein of SIV (SIV)
# [3] = molecular target: HIV-1 major capsid protein (p24) (HIV-1) (UniProt P04591); experiment: equilibrium dialysis of 10 µM recombinant protein against 27.5 µM 14C-GPG-NH2, scintillation counting; ratio to the dialysis buffer
# [4] = molecular target: HIV-1 major capsid protein (p24) (HIV-1) (UniProt P04591)
# [5] = molecular target: HIV-1 major capsid protein (p24) (HIV-1) (UniProt P04591); remark: listed apart in the source
# [6] = molecular target: HIV-1 major capsid protein (p24) (HIV-1) (UniProt P04591); remark: listed apart in the source
# [7] = molecular target: HIV-1 major capsid protein (p24) (HIV-1) (UniProt P04591); remark: listed apart in the source
# [8] = molecular target: HIV-1 major capsid protein (p24) (HIV-1) (UniProt P04591); remark: listed apart in the source
# [9] = molecular target: T1, HIV-1 major capsid protein (p24) (HIV-1, UniProt P04591); experiment: cell-based or functional assay
# [10] = molecular target: T1, HIV-1 major capsid protein (p24); experiment: cell-based or functional assay; remark: listed apart in the source
Molecule,"Day 10 RT, HIV-1 (OD of reverse transcriptase activity in the supernatant of infected H9 cells); HIV-1 syncytia [9]","p24 (pg/ml) in the supernatant of HIV-1 infected HUT78 cells, day 7, 100 µM peptide, reduction (%) [10]",also measured
Cys-Gln-Gly-NH2 (peptide),–,–,"Day 10 RT, HIV-2 (OD of reverse transcriptase activity in the supernatant of infected H9 cells) [1]: 0.296 OD; Day 10 RT, SIV (OD of reverse transcriptase activity in the supernatant of infected H9 cells) [2]: 0.11 OD"
Gly-Lys-Gly-NH2 (peptide),–,–,"Day 10 RT, HIV-2 (OD of reverse transcriptase activity in the supernatant of infected H9 cells) [1]: 0.147 OD; Day 10 RT, SIV (OD of reverse transcriptase activity in the supernatant of infected H9 cells) [2]: 0.099 OD"
Gly-Pro-Gly-NH2 (peptide),–,–,"times buffer [3]: 7.55 times buffer; p24 pg/ml in the supernatant of MT-2 cells infected with HIV-1 Bru wild type or the V3 loop GPG-deleted mutants mp8 and mp10, reduction % [4]: 93%; p24 (pg/ml) in the supernatant of HIV-1 infected HUT78 cells, day 7, reduction (%) [5]: 97%; HIV-1 p24 (pg/ml) in the supernatant of PBMC infected with AZT- or Ritonavir-resistant HIV-1 isolates, 14 days post infection, 100 µM peptide [6]: < 500 pg/mL; p24 antigen in the supernatant of HIV-1 infected H9 cells, day 7, reduction (%) [7]: 100%; Day 10 RT, HIV-2 (OD of reverse transcriptase activity in the supernatant of infected H9 cells) [1]: 0.145 OD; Day 10 RT, HIV-1 (OD of reverse transcriptase activity in the supernatant of infected H9 cells); HIV-1 syncytia [8]: 0.074 OD; Day 10 RT, SIV (OD of reverse transcriptase activity in the supernatant of infected H9 cells) [2]: 0.103 OD"
His-Lys-Ala-NH2 [HKA-NH2],2.79 OD,–,–
Leu-Lys-Ala-NH2 [LKA-NH2],2.99 OD,–,–
Ala-Cys-Gln-NH2 [ACQ-NH2],2.83 OD,–,–
Ala-Arg-Val-NH2 [ARV-NH2],2.83 OD,–,–
Gly-Val-Gly-NH2 [Gly-Val-Gly-NH2],–,25%,–
Gly-Ala-Thr-NH2 [GAT-NH2],2.8 OD,–,–
Val-Gly-Gly-NH2 [Val-Gly-Gly-NH2],–,50%,–
Gly-His-Lys-NH2 [GHK-NH2],3.01 OD,–,–
Ser-Leu-Gly-NH2 [Ser-Leu-Gly-NH2],–,99%,–
Ala-Leu-Gly-NH2 [Ala-Leu-Gly-NH2],–,100%,–
Gly-Pro-Gln-NH2 [GPQ-NH2],2.85 OD,–,–
Ala-Ser-Gly-NH2 [Ala-Ser-Gly-NH2],–,25%,–
Lys-Gln-Gly-NH2 [Lys-Gln-Gly-NH2],–,99%,–
Ile-Leu-Lys-NH2 [ILK-NH2],2.95 OD,–,–
Lys-Ala-Arg-NH2 [KAR-NH2],2.93 OD,–,–
Ser-Pro-Thr-NH2 [Ser-Pro-Thr-NH2],–,25%,–
Lys-Ala-Leu-NH2 [KAL-NH2],2.79 OD,–,–
Arg-Gln-Gly-NH2 [Arg-Gln-Gly-NH2],–,99%,–
